These are literature values, as cited in paper PMC11475284.

Several values for one entry are separate records, joined by “and”; a condition that tells them apart may be missing. Equal entries are not always repeated.

The target of this series is Axin1 DAX (Homo sapiens) (UniProt O15169). In words: SEC-MALS. For orientation: SEC sorts molecules by how far they enter the pores of the column.

Turning to Axin1 DAX (from UniProt O15169), the Kd (in general, the equilibrium constant for the complex coming apart) was 900 nM and 240 nM.
